According to PMC11053944, “FRET Assays for the Identification of C. albicans HSP90-Sba1 and Human HSP90α-p23 Binding Inhibitors” (Pharmaceuticals, 2024):

Experiments:
human HSP90β = molecular target: human HSP90β; set-up: method as in PMID 16403413; settings: read-out: Kd of human HSP90β–p23 complex; cited from earlier work
human HSP90α = tested on: human HSP90α; set-up: method as in PMID 16403413; settings: cited from earlier work
[1] = molecular target: T1, human HSP90α-mNeonGreen–p23-mScarlet-I binding (Homo sapiens, UniProt P07900, E47A); assay: FRET characterization of model inhibitors and ATP on human HSP90α-p23 binding; settings: 5 mM ATP
T1 construct: made in house; host or cells: E. coli Rosetta2(DE3) pLysS
Protocol: In this investigation, 1 µM HSP90-mNeonGreen was incubated with 2 µM Sba1-mScarlet-I in reaction buffer containing 5 mM ATP either alone (UC) or with the addition of 20 µM Sba1. As a negative control, samples containing 20 µM bovine serum albumin (BSA) were used.
FRET experiments were carried out in 384-well microtiter plates (Art. No. 3766 Corning, NY, USA, or Art. No. 781906, Greiner Bio-One GmbH, Frickenhausen, Germany) containing a final volume of 20 µL and measured with a microplate reader Infinite M200Pro (Tecan, Männedorf, Switzerland). The fluorescence was measured in three channels: excitation (ex.): 488 nm/emission (em.): 525 nm (mNeonGreen fluorescence), ex.: 561 nm/em.: 610 nm (mScarlet-I fluorescence) and the FRET channel ex.: 488 nm/em.: 610 nm. The excitation and emission bandwidths were set to 9 and 20 nm, respectively. Experiments for the determination of the equilibrium dissociation constants were performed with a filter-based microplate reader Infinite F200Pro (Tecan, Männedorf, Switzerland). The fluorescence was measured in three channels using the following filters: ex.: 485 ± 20 nm/em.: 535 ± 20 nm (mNeonGreen channel), ex.: 535 ± 20 nm/em.: 612 ± 10 nm (mScarlet-I channel) and the FRET channel ex.: 485 ± 20 nm/em.: 612 ± 10 nm. FRET emission (EmFRET) was calculated according to Song et al. 2011 [81]:(1) EmFRET=FLDA−x×FLDD−(y×FLAA) where FLDA is the fluorescence signal of the FRET channel and FLDD and FLAA are fluorescence signals from the mNeonGreen and mScarlet-I channels, respectively. The correction factors x and y were calculated as follows:(2) x=FLDA/FLDD for samples containing only the donor fluorophore or fluorescent fusion proteins with mNeonGreen and (3) y=FLDA/FLAA for samples containing only the acceptor fluorophore or fluorescent fusion proteins with mScarlet-I in the same concentration as samples containing both the donor and acceptor.
All experiments were carried out in reaction buffer (40 mM HEPES/KOH pH 7.5, 20 mM KCl, 5 mM MgCl2, 20 mM Na2MoO4, Triton-X 100 0.1%). HEPES and KCl were purchased from AppliChem, Darmstadt, Germany. KOH and MgCl2 were obtained from VWR Chemicals, Darmstadt, Germany. Na2MoO4 was from Merck, Darmstadt, Germany. Triton-X 100 was purchased from Serva, Heidelberg, Germany.
For C. albicans Sba1 competition experiments for HSP90-mNeonGreen–Sba1-mScarlet-I binding, 1 µM HSP90-mNeonGreen and 1 µM Sba1-mScarlet-I were incubated with varying concentrations of Sba1 in a range of 0–25,000 nM (lowest non-zero concentration 12 nM) in reaction buffer containing 5 mM ATP. The experiment was performed twice in nonaplicates. For human p23 competition experiments for HSP90α-mNeonGreen–p23-mScarlet-I binding, 1 µM HSP90α-mNeonGreen and 1 µM p23-mScarlet-I were incubated with varying concentrations of p23 in a range of 0–50 000 nM (lowest non-zero concentration 23 nM) in reaction buffer containing 5 mM ATP. The experiment was performed twice in hexaplicates. […] The experiment was performed thrice in triplicates. […] The IC50,rel values were calculated using the equation log (inhibitor) vs. response-variable slope (four parameters) in GraphPad Prism 5. Ki values for inhibition of HSP90-mNeonGreen–Sba1-mScarlet-I/p23-mScarlet-I binding by non-labeled Sba1/p23 were calculated with One Site—Fit Ki in GraphPad Prism 5. […] The EC50,rel values were calculated using the log (agonist) vs. response-variable slope (four parameters) equation in GraphPad Prism 5.

human HSP90α–p23 binding = molecular target: T2, human HSP90α–p23 binding (Homo sapiens, UniProt P07900); assay: FRET inhibitor screening assay, human HSP90α-p23 binding; settings: 10 or 100 µM, triplicates, 3 mM ATP, 1% DMSO, 15 min 37 °C
T2 construct: made in house; host or cells: E. coli Rosetta2(DE3) pLysS
Source text: We used the Z′ factor (Z′) to optimize the FRET assays for screening purposes. Z′ represents a simple statistical parameter for the quality assessment and optimization of HTS assays and screening assays in general. It is a measure that determines the degree of signal separation between binding and non-binding data sets. Calculation of the Z′ factor is based on the standard deviation of the individual data sets as well as their general signal separation. Values ≥ 0.5 can be classified as excellent for screening purposes. […] When the fluorescent fusion proteins of HSP90 and co-chaperones bind to each other, FRET occurs between donor and acceptor fluorophores, and the sensitized emission (EmFRET) signal increases. Consequently, the fluorescence intensity of the donor decreases (FLDD). […] We defined the ‘hit threshold’ as a decrease in readout signal of more than 3 standard deviations (SDs) from the mean signal of the binding control. This constitutes a common threshold for hit identification in HTS campaigns.
The excitation and emission bandwidths were set to 9 and 20 nm, respectively. Experiments for the determination of the equilibrium dissociation constants were performed with a filter-based microplate reader Infinite F200Pro (Tecan, Männedorf, Switzerland). […] The correction factors x and y were calculated as follows:(2) x=FLDA/FLDD for samples containing only the donor fluorophore or fluorescent fusion proteins with mNeonGreen and (3) y=FLDA/FLAA for samples containing only the acceptor fluorophore or fluorescent fusion proteins with mScarlet-I in the same concentration as samples containing both the donor and acceptor.
For screening for the identification of ATP-competitive C. albicans HSP90 and HSP90-Sba1 binding inhibitors, 10 µL of HSP90-mNeonGreen (2 µM) and Sba1-mScarlet-I (4 µM) in HEPES buffer (40 mM HEPES/KOH pH 7.5, 20 mM KCl) was mixed with 10 µL of 200 µM compound solution in 2x reaction buffer (40 mM HEPES/KOH pH 7.5, 20 mM KCl, 10 mM MgCl2, 40 mM Na2MoO4, Triton-X 100 0.2%), 6 mM ATP, 2% DMSO, resulting ultimately in constant HSP90-mNeonGreen concentrations of 1 µM and Sba1-mScarlet-I 2 µM in reaction buffer. Samples for binding control (3 mM ATP, final concentration) and non-binding control (no ATP) were prepared in the same manner without compounds. The samples were incubated for 15 min at 30 °C prior to measurement. The assay for the human HSP90α–p23 binding inhibitor identification was performed analogously, with the exception that samples were incubated for 15 min at 37 °C prior to measurement. Since binding samples show both a high EmFRET as well as a reduction in donor emission (FLDD), we calculated the quotient (EmFRET/FLDD) to derive an improved signal separation and robustness. The nucleoside-mimetics library was obtained from Enamine (catalog No. NML-320-X-20, Enamine Ltd., Kyiv, Ukraine). Z′ and Z factors were calculated based on Zhang et al..

**Q.** What does the source list for “p23: unlabeled human HSP90 co-chaperone p23 (Q15185), His6-tagged”?
**A.** Kd (human HSP90β): 1.5 µM; effect on HSP90 ATPase activity upon binding (human HSP90α): complete abrogation; effect on FRET emission (EmFRET) versus untreated control ([1]; 20 µM added, 1 µM HSP90α-mNeonGreen, 2 µM p23-mScarlet-I): significant reduction in FRET emission; IC50 ([1]; donor and acceptor both 1 µM, read-out: relative IC50, inhibition of HSP90α-mNeonGreen–p23-mScarlet-I binding): 1.4 ± 0.2 µM; hit identification (EmFRET/FLDD decrease of more than 3 SDs from binding control mean) (human HSP90α–p23 binding): identified as hits
